B1: C3I3 (antibody, V domains shown)
VH: DVQLVESGGGLVQPGGSLRLSCAASGFTLDNYAIAWFRQAPGKEREGVSCISSSRGSTAYEDSVKGRFTIARDNAKNTVYLQMNSLKPEDTAVYYCAARARGMCREFDYDYWGQGTQVTVSS
B2: C3I8 (designed binder)
chain: DVQLVESGGGLVQPGGSLRLSCATSGFSFGVYDMSWVRQASGKGLEWVSGIDSGSNTAYADSVKVRFTISRDNAKNTLYLQMNNLKPEDTAVYYCALGRETDYIPVTDFRTQGTQVTVSS
B3: C3S8 (antibody, V domains shown)
VH: QVQLQESGGGLVQAGGSLRLSCAASGTIFPTDRMGWYRQAPGKEREFVATIDLGGTTNYADSVKGRFTISRDNAKNTVYLQMNSLKPEDTAVYYCAAAWEGPSRYGRHRYYSHRYWGQGTQVTVSS
B4: C3I22 (antibody, V domains shown)
VH: DVQLVESGGGLVQPGGSLRLSCTASGFTFGVYAMSWVRQAPGKGLEWVSSIDSGVNTAYADSVKGRFTISRDNAINTVFLQMNSLKPEDTAVYHCALGRESDYEPVTGSWGQGTQVTVSS
B5: C3S6 (antibody, V domains shown)
VH: QVQLQESGGGLVQAGGSLRLSCAASGNIFVGHGMGWYRQAPGKEREFVAAIGYGAITNYADSVKGRFTISRDNAKNTVYLQMNSLKPEDTAVYYCAASSYYPPRYWYWGQGTLVTVSS
B6: C3I4 (antibody, V domains shown)
VH: DVQLVESGGGLVQPGGSLRLSCATSGFTLDYYAIGWFRQAPGKEREGVSCITGPDGSTHYADSVKGRFTISRDNAKNTVYLQMNSLKPEDTAVYYCAATAGLYGCGYGMDHWGKGTQVTVSS

Target: human C3 (human, UniProt P01024)
Assay: BLI

| Kd [µM] | Binder |
| --- | --- |
| 0.017 | B1 |
| 0.0048 | B2 |
| 0.014 | B3 |
| 0.0039 | B4 |
| 0.02 | B5 |
| 0.027 | B6 |

From patent US20260347449 (published 2026)
